Data taken from publication PMC7145534, “Are the intrinsically disordered linkers involved in SSB binding to accessory proteins?” (Nucleic Acids Research, 2019).
Values joined by “and” are separate entries in the source; they are usually repeats but may differ in a detail not shown here. Equal entries are not always repeated.

T1: Escherichia coli RecO protein (E. coli, UniProt P0A7H3 1-242)
T1 construct: RecO, E. coli, overexpressed from plasmid pMCSG7; His-tag cleaved with TEV protease; monomeric by sedimentation velocity; source: E. coli BL21(DE3)pLysS, purified (Ni-NTA, HiTrap Heparin HP)
T1 sequence (looked up): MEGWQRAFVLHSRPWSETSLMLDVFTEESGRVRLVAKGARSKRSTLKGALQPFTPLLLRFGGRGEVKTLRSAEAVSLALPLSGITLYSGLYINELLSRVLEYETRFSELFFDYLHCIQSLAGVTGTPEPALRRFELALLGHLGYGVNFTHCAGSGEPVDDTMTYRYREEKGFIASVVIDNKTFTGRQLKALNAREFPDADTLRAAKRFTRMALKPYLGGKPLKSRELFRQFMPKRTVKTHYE

T2: Escherichia coli RecO protein (E. coli, UniProt P0A7H3 1-242)
T2 construct: E. coli RecO, recombination mediator of the RecF pathway; source: E. coli BL21(DE3)pLysS, plasmid pMCSG7, purified (Ni-NTA, HiTrap Heparin HP) after His-tag cleavage with TEV protease
T2 sequence (looked up): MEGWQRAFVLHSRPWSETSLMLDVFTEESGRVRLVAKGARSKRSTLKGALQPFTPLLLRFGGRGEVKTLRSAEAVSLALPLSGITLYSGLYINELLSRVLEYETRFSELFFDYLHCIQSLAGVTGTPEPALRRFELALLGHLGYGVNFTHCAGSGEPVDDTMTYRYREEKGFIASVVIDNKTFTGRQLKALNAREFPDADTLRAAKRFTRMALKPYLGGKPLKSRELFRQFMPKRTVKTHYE


Experiments:
[1] = target: T1, Escherichia coli RecO protein; experiment: ITC; SSB tetramer (8-10 µM), without DNA, titrated into RecO (1 µM); buffer BTP pH 7.0, 200 mM NaCl, 25°C; N floated, N = RecO per SSB tetramer; ΔH per tip; details: both partners purified
[2] = target: the molecule itself; experiment: AUC; sedimentation velocity, 42 000 rpm, 25°C; SSB construct 0.35 μM tetramer alone and with 3.5 μM RecO (2.5 molar excess per C-terminus); buffer BTP pH 7.0, 200 mM NaCl
[3] = target: T2, Escherichia coli RecO protein; experiment: ITC; apo SSB tetramer (9–10 μM) titrated into RecO (1 μM); buffer BTP pH 7.0, 200 mM NaCl, 25°C; N fixed to 4 RecO per tetramer, K and ΔH per C-terminus; details: both partners purified
[4] = target: T2, Escherichia coli RecO protein; experiment: ITC; SSB tetramer–(dT)70 complex (9–10 μM) titrated into RecO (1 μM); buffer BTP pH 7.0, 200 mM NaCl, 25°C; N fixed to 4, K and ΔH per C-terminus; details: both partners purified
RecO = details: 0.35 μM tetramer, BTP pH 7.0, 200 mM NaCl, 25°C, no RecO
Method: Sedimentation velocity experiments were performed with an Optima XL-A analytical ultracentrifuge and An50Ti rotor (Beckman Coulter, Fullerton, CA, USA) at 42 000 rpm (25°C) as described ([50]). The concentrations used were 1–2 μM SIPs, 0.3–0.5 μM SSB tetramers, while monitoring absorbance at 230 or 280 nm. The experiments with SSB-Ct peptides were performed in Buffer BTP at pH 8.0 and 50 mM NaCl. The experiment with SSB proteins and the deletion constructs were performed in Buffer BTP at pH 7.0 and 200 mm NaCl. The sample (380 μl) and buffer (394 μl) were loaded into each sector of an Epon charcoal-filled two-sector centerpiece. Absorbance data were collected by scanning the sample cells at intervals of 0.003 cm. Data were analyzed using SEDFIT, to obtain c(s) distributions ([70]). The c(s) distribution function defines the populations of species with different sedimentation rates and represents a variant of the distribution of Lamm equation solutions ([70]). The density and viscosity of the experimental buffers at 25°C were determined using [sequence] […] The partial specific volume of (dT)70 used was 0.56 ml/g. In the experiments involving more than one species, the partial specific volumes of complexes were calculated assuming additivity using Equation (4), where = number of moles of species ‘i’, = molecular weight of species ‘i’, and = partial specific volume of each species i.(4)
RecO binding to SSB tetramers with portions of the IDL deleted. […] (C) The results of sedimentation velocity experiments, plotted as the c(s) distribution ([70]) for each SSB construct (0.35 μM tetramer) in the absence (black lines) and presence (red lines) of 2.5 molar excess of RecO (3.5 μM) per C-terminus.

Molecule | Ka [1] | stoichiometry N [1] | stoichiometry N [2] | dH (per tip, ΔH/4) [3] [kcal/mol] | dH (per tip, ΔH/4) [4] [kcal/mol] | sedimentation coefficient, SSB alone (RecO) [S]
SSBΔ130-166 tetramer (natural protein, E. coli, UniProt P0AGE0 1-178, looked up, E. coli SSB with residues 130-166 of the IDL deleted, acidic tip kept) MASRGVNKVILVGNLGQDPEVRYMPNGGAVANITLATSESWRDKATGEMKEQTEWHRVVLFGKLAEVASEYLRKGSQVYIEGQLRTRKWTDQSGQDRYTTEVVVNVGGTMQMLGGRQGGGAPAGGNIGGGPPMDFDDDIPF | 2e+06 M⁻¹ and 1.5e+06 M⁻¹ | 3.8 and 4.04 | – | – | – | –
SSBΔ130-166 tetramer (natural protein, E. coli, UniProt P0AGE0 1-178, looked up, E. coli SSB with residues 130-166 of the IDL deleted, acidic tip kept; All three PXXP motifs deleted; Used apo and in complex with (dT)70) MASRGVNKVILVGNLGQDPEVRYMPNGGAVANITLATSESWRDKATGEMKEQTEWHRVVLFGKLAEVASEYLRKGSQVYIEGQLRTRKWTDQSGQDRYTTEVVVNVGGTMQMLGGRQGGGAPAGGNIGGGPPMDFDDDIPF | – | – | 4 | -2.3 ± 0.1 | -4.5 ± 0.1 | –
SSBΔ130-166: SSB tetramer variant with IDL residues 130-166 deleted, retaining the acidic tip (protein) MASRGVNKVILVGNLGQDPEVRYMPNGGAVANITLATSESWRDKATGEMKEQTEWHRVVLFGKLAEVASEYLRKGSQVYIEGQLRTRKWTDQSGQDRYTTEVVVNVGGTMQMLGGRQGGGAPAGGNIGGGPPMDFDDDIPF | – | – | – | – | – | 1.3
SSBΔ151-166 tetramer (natural protein, E. coli, UniProt P0AGE0 1-178, looked up, E. coli SSB with residues 151-166 of the IDL deleted, acidic tip kept; Two C-terminal PXXP motifs deleted; Used apo and in complex with (dT)70) MASRGVNKVILVGNLGQDPEVRYMPNGGAVANITLATSESWRDKATGEMKEQTEWHRVVLFGKLAEVASEYLRKGSQVYIEGQLRTRKWTDQSGQDRYTTEVVVNVGGTMQMLGGRQGGGAPAGGNIGGGQPQGGWGQPQQPQGGNQFSGGPPMDFDDDIPF | – | – | 4 | -7 ± 0.1 | -8.7 ± 0.1 | 1.4
